From patent publication US20240209076A1 (KODIAK SCIENCES, published 2024)

B1: anti-IL-6 Fab, light chain M88A (Fab, V domains shown)
VH: EVQLVESGGGLVQPGGSLRLSCAASGFTFSPFAMSWVRQAPGKGLEWVAKISPGGSWTYYSDTVTGRFTFSLDTSKSTAYLQMNSLRAEDTAVYYCARQLWGYYALDIWGQGTLVTVSS
VL: DIQLTQSPSSLSASVGDRVTITCSASISVSYMYWYQQKPGKAPKLLIYDMSNLASGVPSRFSGSGSGTDFTLTISSLQPEDFATYYCAQWSGYPYTFGQGTKVEIK
notes: see m39
B2: anti-IL-6 Fab, light chain S28W (Fab, V domains shown)
VH: EVQLVESGGGLVQPGGSLRLSCAASGFTFSPFAMSWVRQAPGKGLEWVAKISPGGSWTYYSDTVTGRFTFSLDTSKSTAYLQMNSLRAEDTAVYYCARQLWGYYALDIWGQGTLVTVSS
VL: DIQLTQSPSSLSASVGDRVTITCSASIWVSYMYWYQQKPGKAPKLLIYDMSNLASGVPSRFSGSGSGTDFTLTISSLQPEDFATYYCMQWSGYPYTFGQGTKVEIK
notes: see m39
B3: anti-IL-6 Fab, light chain S28E (Fab, V domains shown)
VH: EVQLVESGGGLVQPGGSLRLSCAASGFTFSPFAMSWVRQAPGKGLEWVAKISPGGSWTYYSDTVTGRFTFSLDTSKSTAYLQMNSLRAEDTAVYYCARQLWGYYALDIWGQGTLVTVSS
VL: DIQLTQSPSSLSASVGDRVTITCSASIEVSYMYWYQQKPGKAPKLLIYDMSNLASGVPSRFSGSGSGTDFTLTISSLQPEDFATYYCMQWSGYPYTFGQGTKVEIK
notes: see m39
B4: anti-IL-6 Fab, light chain Q89A (Fab, V domains shown)
VH: EVQLVESGGGLVQPGGSLRLSCAASGFTFSPFAMSWVRQAPGKGLEWVAKISPGGSWTYYSDTVTGRFTFSLDTSKSTAYLQMNSLRAEDTAVYYCARQLWGYYALDIWGQGTLVTVSS
VL: DIQLTQSPSSLSASVGDRVTITCSASISVSYMYWYQQKPGKAPKLLIYDMSNLASGVPSRFSGSGSGTDFTLTISSLQPEDFATYYCMAWSGYPYTFGQGTKVEIK
notes: see m39
B5: anti-IL-6 Fab, light chain S26G (Fab, V domains shown)
VH: EVQLVESGGGLVQPGGSLRLSCAASGFTFSPFAMSWVRQAPGKGLEWVAKISPGGSWTYYSDTVTGRFTFSLDTSKSTAYLQMNSLRAEDTAVYYCARQLWGYYALDIWGQGTLVTVSS
VL: DIQLTQSPSSLSASVGDRVTITCSAGISVSYMYWYQQKPGKAPKLLIYDMSNLASGVPSRFSGSGSGTDFTLTISSLQPEDFATYYCMQWSGYPYTFGQGTKVEIK
notes: see m39
B6: anti-IL-6 Fab, light chain S51D (Fab, V domains shown)
VH: EVQLVESGGGLVQPGGSLRLSCAASGFTFSPFAMSWVRQAPGKGLEWVAKISPGGSWTYYSDTVTGRFTFSLDTSKSTAYLQMNSLRAEDTAVYYCARQLWGYYALDIWGQGTLVTVSS
VL: DIQLTQSPSSLSASVGDRVTITCSASISVSYMYWYQQKPGKAPKLLIYDMDNLASGVPSRFSGSGSGTDFTLTISSLQPEDFATYYCMQWSGYPYTFGQGTKVEIK
notes: see m39
B7: anti-IL-6 Fab, light chain M88V (Fab, V domains shown)
VH: EVQLVESGGGLVQPGGSLRLSCAASGFTFSPFAMSWVRQAPGKGLEWVAKISPGGSWTYYSDTVTGRFTFSLDTSKSTAYLQMNSLRAEDTAVYYCARQLWGYYALDIWGQGTLVTVSS
VL: DIQLTQSPSSLSASVGDRVTITCSASISVSYMYWYQQKPGKAPKLLIYDMSNLASGVPSRFSGSGSGTDFTLTISSLQPEDFATYYCVQWSGYPYTFGQGTKVEIK
notes: see m39
B8: anti-IL-6 Fab, light chain S55P (Fab, V domains shown)
VH: EVQLVESGGGLVQPGGSLRLSCAASGFTFSPFAMSWVRQAPGKGLEWVAKISPGGSWTYYSDTVTGRFTFSLDTSKSTAYLQMNSLRAEDTAVYYCARQLWGYYALDIWGQGTLVTVSS
VL: DIQLTQSPSSLSASVGDRVTITCSASISVSYMYWYQQKPGKAPKLLIYDMSNLAPGVPSRFSGSGSGTDFTLTISSLQPEDFATYYCMQWSGYPYTFGQGTKVEIK
notes: see m39
B9: anti-IL-6 Fab, light chain S51R (Fab, V domains shown)
VH: EVQLVESGGGLVQPGGSLRLSCAASGFTFSPFAMSWVRQAPGKGLEWVAKISPGGSWTYYSDTVTGRFTFSLDTSKSTAYLQMNSLRAEDTAVYYCARQLWGYYALDIWGQGTLVTVSS
VL: DIQLTQSPSSLSASVGDRVTITCSASISVSYMYWYQQKPGKAPKLLIYDMRNLASGVPSRFSGSGSGTDFTLTISSLQPEDFATYYCMQWSGYPYTFGQGTKVEIK
notes: see m39
B10: anti-IL-6 Fab, light chain S51K (Fab, V domains shown)
VH: EVQLVESGGGLVQPGGSLRLSCAASGFTFSPFAMSWVRQAPGKGLEWVAKISPGGSWTYYSDTVTGRFTFSLDTSKSTAYLQMNSLRAEDTAVYYCARQLWGYYALDIWGQGTLVTVSS
VL: DIQLTQSPSSLSASVGDRVTITCSASISVSYMYWYQQKPGKAPKLLIYDMKNLASGVPSRFSGSGSGTDFTLTISSLQPEDFATYYCMQWSGYPYTFGQGTKVEIK
notes: see m39
B11: anti-IL-6 Fab, light chain S26K (Fab, V domains shown)
VH: EVQLVESGGGLVQPGGSLRLSCAASGFTFSPFAMSWVRQAPGKGLEWVAKISPGGSWTYYSDTVTGRFTFSLDTSKSTAYLQMNSLRAEDTAVYYCARQLWGYYALDIWGQGTLVTVSS
VL: DIQLTQSPSSLSASVGDRVTITCSAKISVSYMYWYQQKPGKAPKLLIYDMSNLASGVPSRFSGSGSGTDFTLTISSLQPEDFATYYCMQWSGYPYTFGQGTKVEIK
notes: see m39
B12: anti-IL-6 Fab, light chain S55L (Fab, V domains shown)
VH: EVQLVESGGGLVQPGGSLRLSCAASGFTFSPFAMSWVRQAPGKGLEWVAKISPGGSWTYYSDTVTGRFTFSLDTSKSTAYLQMNSLRAEDTAVYYCARQLWGYYALDIWGQGTLVTVSS
VL: DIQLTQSPSSLSASVGDRVTITCSASISVSYMYWYQQKPGKAPKLLIYDMSNLALGVPSRFSGSGSGTDFTLTISSLQPEDFATYYCMQWSGYPYTFGQGTKVEIK
notes: see m39
B13: anti-IL-6 Fab, light chain S24P (Fab, V domains shown)
VH: EVQLVESGGGLVQPGGSLRLSCAASGFTFSPFAMSWVRQAPGKGLEWVAKISPGGSWTYYSDTVTGRFTFSLDTSKSTAYLQMNSLRAEDTAVYYCARQLWGYYALDIWGQGTLVTVSS
VL: DIQLTQSPSSLSASVGDRVTITCPASISVSYMYWYQQKPGKAPKLLIYDMSNLASGVPSRFSGSGSGTDFTLTISSLQPEDFATYYCMQWSGYPYTFGQGTKVEIK
notes: see m39
B14: anti-IL-6 Fab, light chain N52S (Fab, V domains shown)
VH: EVQLVESGGGLVQPGGSLRLSCAASGFTFSPFAMSWVRQAPGKGLEWVAKISPGGSWTYYSDTVTGRFTFSLDTSKSTAYLQMNSLRAEDTAVYYCARQLWGYYALDIWGQGTLVTVSS
VL: DIQLTQSPSSLSASVGDRVTITCSASISVSYMYWYQQKPGKAPKLLIYDMSSLASGVPSRFSGSGSGTDFTLTISSLQPEDFATYYCMQWSGYPYTFGQGTKVEIK
notes: see m39
B15: anti-IL-6 Fab, light chain S24I (Fab, V domains shown)
VH: EVQLVESGGGLVQPGGSLRLSCAASGFTFSPFAMSWVRQAPGKGLEWVAKISPGGSWTYYSDTVTGRFTFSLDTSKSTAYLQMNSLRAEDTAVYYCARQLWGYYALDIWGQGTLVTVSS
VL: DIQLTQSPSSLSASVGDRVTITCIASISVSYMYWYQQKPGKAPKLLIYDMSNLASGVPSRFSGSGSGTDFTLTISSLQPEDFATYYCMQWSGYPYTFGQGTKVEIK
notes: see m39
B16: anti-IL-6 Fab, light chain Q89S (Fab, V domains shown)
VH: EVQLVESGGGLVQPGGSLRLSCAASGFTFSPFAMSWVRQAPGKGLEWVAKISPGGSWTYYSDTVTGRFTFSLDTSKSTAYLQMNSLRAEDTAVYYCARQLWGYYALDIWGQGTLVTVSS
VL: DIQLTQSPSSLSASVGDRVTITCSASISVSYMYWYQQKPGKAPKLLIYDMSNLASGVPSRFSGSGSGTDFTLTISSLQPEDFATYYCMSWSGYPYTFGQGTKVEIK
notes: see m39
B17: anti-IL-6 Fab, light chain S26H (Fab, V domains shown)
VH: EVQLVESGGGLVQPGGSLRLSCAASGFTFSPFAMSWVRQAPGKGLEWVAKISPGGSWTYYSDTVTGRFTFSLDTSKSTAYLQMNSLRAEDTAVYYCARQLWGYYALDIWGQGTLVTVSS
VL: DIQLTQSPSSLSASVGDRVTITCSAHISVSYMYWYQQKPGKAPKLLIYDMSNLASGVPSRFSGSGSGTDFTLTISSLQPEDFATYYCMQWSGYPYTFGQGTKVEIK
notes: see m39
B18: anti-IL-6 Fab, light chain S24K (Fab, V domains shown)
VH: EVQLVESGGGLVQPGGSLRLSCAASGFTFSPFAMSWVRQAPGKGLEWVAKISPGGSWTYYSDTVTGRFTFSLDTSKSTAYLQMNSLRAEDTAVYYCARQLWGYYALDIWGQGTLVTVSS
VL: DIQLTQSPSSLSASVGDRVTITCKASISVSYMYWYQQKPGKAPKLLIYDMSNLASGVPSRFSGSGSGTDFTLTISSLQPEDFATYYCMQWSGYPYTFGQGTKVEIK
notes: see m39
B19: anti-IL-6 Fab, light chain S55I (Fab, V domains shown)
VH: EVQLVESGGGLVQPGGSLRLSCAASGFTFSPFAMSWVRQAPGKGLEWVAKISPGGSWTYYSDTVTGRFTFSLDTSKSTAYLQMNSLRAEDTAVYYCARQLWGYYALDIWGQGTLVTVSS
VL: DIQLTQSPSSLSASVGDRVTITCSASISVSYMYWYQQKPGKAPKLLIYDMSNLAIGVPSRFSGSGSGTDFTLTISSLQPEDFATYYCMQWSGYPYTFGQGTKVEIK
notes: see m39
B20: anti-IL-6 Fab, light chain S30G (Fab, V domains shown)
VH: EVQLVESGGGLVQPGGSLRLSCAASGFTFSPFAMSWVRQAPGKGLEWVAKISPGGSWTYYSDTVTGRFTFSLDTSKSTAYLQMNSLRAEDTAVYYCARQLWGYYALDIWGQGTLVTVSS
VL: DIQLTQSPSSLSASVGDRVTITCSASISVGYMYWYQQKPGKAPKLLIYDMSNLASGVPSRFSGSGSGTDFTLTISSLQPEDFATYYCMQWSGYPYTFGQGTKVEIK
notes: see m39
B21: anti-IL-6 Fab, light chain S24V (Fab, V domains shown)
VH: EVQLVESGGGLVQPGGSLRLSCAASGFTFSPFAMSWVRQAPGKGLEWVAKISPGGSWTYYSDTVTGRFTFSLDTSKSTAYLQMNSLRAEDTAVYYCARQLWGYYALDIWGQGTLVTVSS
VL: DIQLTQSPSSLSASVGDRVTITCVASISVSYMYWYQQKPGKAPKLLIYDMSNLASGVPSRFSGSGSGTDFTLTISSLQPEDFATYYCMQWSGYPYTFGQGTKVEIK
notes: see m39
B22: anti-IL-6 Fab, light chain S30A (Fab, V domains shown)
VH: EVQLVESGGGLVQPGGSLRLSCAASGFTFSPFAMSWVRQAPGKGLEWVAKISPGGSWTYYSDTVTGRFTFSLDTSKSTAYLQMNSLRAEDTAVYYCARQLWGYYALDIWGQGTLVTVSS
VL: DIQLTQSPSSLSASVGDRVTITCSASISVAYMYWYQQKPGKAPKLLIYDMSNLASGVPSRFSGSGSGTDFTLTISSLQPEDFATYYCMQWSGYPYTFGQGTKVEIK
notes: see m39

The binders below were run against recombinant human IL-6 (human, UniProt P05231 30-212) (assay: SPR, IL-6 on CM5 chip, Fab lysate, 25 C).
Chain of recombinant human IL-6 (P05231 30-212 limits assumed): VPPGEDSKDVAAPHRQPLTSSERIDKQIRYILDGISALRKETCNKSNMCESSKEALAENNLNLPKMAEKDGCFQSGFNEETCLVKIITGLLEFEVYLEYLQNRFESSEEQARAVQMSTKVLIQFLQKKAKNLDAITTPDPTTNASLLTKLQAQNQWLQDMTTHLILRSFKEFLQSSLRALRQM
Binder B1 has a koff of 0.00479 s⁻¹.
With B2 the koff was 0.00398 s⁻¹.
Binder B3 has a koff of 0.00451 s⁻¹.
B4 showed a koff of 0.00585 s⁻¹.
B5 was tested, and the koff was 0.00394 s⁻¹.
B6 showed a koff of 0.00466 s⁻¹.
Work on B7 yielded a koff of 0.00495 s⁻¹.
For B8, the koff was 0.0052 s⁻¹.
Work on B9 yielded a koff of 0.00467 s⁻¹.
Binder B10 has a koff of 0.00461 s⁻¹.
Binder B11 has a koff of 0.00441 s⁻¹.
B12 showed a koff of 0.00507 s⁻¹.
In the case of B13, the koff is reported as 0.00397 s⁻¹.
B14 was tested, and the koff was 0.00555 s⁻¹.
Work on B15 yielded a koff of 0.00412 s⁻¹.
B16 gave a koff of 0.00601 s⁻¹.
For B17, the koff was 0.00427 s⁻¹.
In the case of B18, the koff is reported as 0.00416 s⁻¹.
B19 showed a koff of 0.00505 s⁻¹.
For B20, the koff was 0.00677 s⁻¹.
Work on B21 yielded a koff of 0.00416 s⁻¹.
Binder B22 has a koff of 0.00654 s⁻¹.
